“Also recorded” adds a separate entry of the source.
B1: … (peptide)
peptide: VLKRPLPIPPVTR
modifications: not checked

Key:
[1] = target: T1, Src SH3-GST (Homo sapiens, UniProt P12931); test: Biotinylated synthetic peptide binding ELISA to immobilized Src SH3-GST; conditions: for binding to Src SH3 domain (Src SH3-GST): 10 μM biotinylated peptide, streptavidin-alkaline phosphatase ELISA, FIGS. 7 and 8; for relative specificity of binding for SH3 domains of different proteins: Src family versus Grb2, Crk, Abl, PLCγ SH3 domains, FIG. 8
T1 construct: Bacterially expressed Src SH3 glutathione-S-transferase (Src-GST) fusion protein was purified from bacterial lysates; made in house; host or cells: bacteria (pGEX vector)
Method: (§1) These biotinylated peptides were assayed for direct binding to immobilized Src SH3-GST. […] Furthermore, a strong correlation was observed between the similarity of a given peptide to the preferred core consensus sequence RPLP(P/M)LP (SEQ ID NO:96) and the peptide's affinity for Src SH3-GST.
(§2) The preparation of Src-GST fusion protein was first described by Smith and Johnson, in Gene (1988) 67:31, the disclosure of which is incorporated by reference herein. Briefly, pGEX-derived (Pharmacia, Piscataway, N.J.) constructs expressing GST fusion proteins containing the SH3 domains of Src, Grb2, Crk, Abl, or PLCγ were obtained from Dr. Channing Der (University of North Carolina at Chapel Hill); a construct expressing the SH3 domain of Yes was obtained from Dr. Marius Sudol (Rockefeller University). The use of the pGEX bacterial expression vector for the production of GST-SH3 fusion proteins is well-known to those in the art. See, e.g., Cicchetti, P. et al., in Science (1992) 257:803-806. Briefly, the coding region for a particular SH3 domain can be fused in-frame at the Bam HI site of pGEX-2T. Thus, fusion proteins were prepared as per the manufacturer's instructions, and quantified by Coomassie Blue staining of SDS-polyacrylamide gels. Microtiter wells were coated with 5-20 μg GST-SH3 fusion protein in 100 mM NaHCO3, pH 8.5, blocked with 100 mM NaHCO3 (pH 8.5) 1% BSA, and washed. All washes consisted of five applications of 1XPBS, 0.1% Tween 20, 0.1% BSA (Buffer A). Where appropriate, the amount of protein bound to each well was quantified with an anti-GST antibody-based ELISA (Pharmacia, Piscataway, N.J.), and with a GST-binding phage, isolated during the course of this work.
Bacterially expressed Src SH3 glutathione-S-transferase (Src-GST) fusion protein was purified from bacterial lysates using glutathione agarose 4B (Pharmacia), according to the manufacturer's instructions. Bound Src-GST fusion protein was eluted from the glutathione agarose with 10 mM glutathione in PBS. Microtiter wells were then coated with Src-GST fusion protein (1-10 μg/well, in 50 mM NaHCO3, pH 8.5) overnight at 4° C. To block non-specific binding of phage, 100 μL 1% BSA in 100 mM NaHCO3, pH 8.5, was added to each well and allowed to incubate at room temperature for 1 hour. The wells were then washed five times with 200 μL PBS, 0.1% Tween™ 20, 0.1% BSA (Buffer A).
(§3) Peptides were obtained from Research Genetics (Birmingham, Ala.), Chiron Mimotopes (Victoria, Australia), or synthesized by conventional techniques by Dr. J. Mark Carter of Cytogen Corporation (Princeton, N.J.). Peptide purity was assessed by HPLC and/or mass spectrometry. Biotinylated peptides were synthesized with either a KSGSG (SEQ ID NO:103) or a GSGS (SEQ ID NO:104) peptide linker (a spacer) between the biotin and the N-terminus of the peptide. Binding experiments were performed as above, excepting the use of 10 μM peptide instead of phage. Bound biotinylated peptide was detected with streptavidin conjugated to alkaline phosphatase (Sigma Chemical Co., St. Louis, Mo.). After one hour incubation period at room temperature, the wells were washed, and a solution of 3 mM p-nitrophenyl-phosphate (US Biochemicals, Cleveland, Ohio) in 50 mM NaCO3 (pH 9.8), and 50 mM MgCl2 was added and color allowed to develop. Signals were read with an ELISA plate reader (Molecular Devices, Menlo Park, Calif.) at 405 nm wavelength. Binding experiments were performed in triplicate.

[2] = test system: PLCγ1 SH2SH3-GST; test: Biotinylated synthetic peptide binding ELISA to immobilized PLCγ1 SH2SH3-GST; conditions: 10 μM biotinylated peptide, FIG. 8
Method: (§4) As mentioned above, the relative specificity of binding was explored. Thus, the relative binding of Src SH3-selected peptides to equal amounts of GST fusions to SH3 domains from different proteins was determined (FIG. 8). While all of the library-derived peptides bound the Src and Yes SH3 domains almost equally well, none of the peptides (with the exception of peptide T12.SRC3.1, the most divergent peptide tested) bound the SH3 domains of Grb2, Crk, Abl or PLCγ1 appreciably.
as §2, with “Briefly, the coding region for a particular SH3 domain can be fused in-frame at the Bam HI site of pGEX-2T.” left out, “Microtiter wells were coated with 5-20 μg GST-SH3 fusion protein in 100 mM NaHCO3, pH 8.5, blocked with 100 mM NaHCO3 (pH 8.5) 1% BSA, and washed. All washes consisted of five applications of 1XPBS, 0.1% Tween 20, 0.1% BSA (Buffer A).” left out
(§5) Peptides were obtained from Research Genetics (Birmingham, Ala.), Chiron Mimotopes (Victoria, Australia), or synthesized by conventional techniques by Dr. J. Mark Carter of Cytogen Corporation (Princeton, N.J.). Peptide purity was assessed by HPLC and/or mass spectrometry. […] Bound biotinylated peptide was detected with streptavidin conjugated to alkaline phosphatase (Sigma Chemical Co., St. Louis, Mo.). […] Signals were read with an ELISA plate reader (Molecular Devices, Menlo Park, Calif.) at 405 nm wavelength. […]

[3] = target: T2, Yes SH3-GST (Homo sapiens, UniProt P07947); test: Biotinylated synthetic peptide binding ELISA to immobilized Yes SH3-GST; conditions: 10 μM biotinylated peptide, FIG. 8
T2 construct: a construct expressing the SH3 domain of Yes was obtained from Dr. Marius Sudol (Rockefeller University); made in house; host or cells: bacteria (pGEX vector)
T2 sequence (P07947 91-152 limits assumed): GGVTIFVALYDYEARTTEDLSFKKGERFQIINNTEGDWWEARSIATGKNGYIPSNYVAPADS
Method: as §1, §2, §3

[4] = target: T3, Grb2-GST (Homo sapiens, UniProt P62993); test: Biotinylated synthetic peptide binding ELISA to immobilized Grb2-GST; conditions: 10 μM biotinylated peptide, FIG. 8
T3 construct: made in house; host or cells: bacteria (pGEX vector)
T3 sequence (P62993 whole entry): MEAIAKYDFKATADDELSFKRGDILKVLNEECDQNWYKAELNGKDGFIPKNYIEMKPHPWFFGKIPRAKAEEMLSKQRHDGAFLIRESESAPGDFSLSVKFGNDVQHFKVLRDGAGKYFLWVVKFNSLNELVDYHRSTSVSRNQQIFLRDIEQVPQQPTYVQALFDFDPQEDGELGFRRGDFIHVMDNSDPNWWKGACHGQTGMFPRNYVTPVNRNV
Method: as §4
as §2, with “Briefly, the coding region for a particular SH3 domain can be fused in-frame at the Bam HI site of pGEX-2T.” left out, “Microtiter wells were coated with 5-20 μg GST-SH3 fusion protein in 100 mM NaHCO3, pH 8.5, blocked with 100 mM NaHCO3 (pH 8.5) 1% BSA, and washed. All washes consisted of five applications of 1XPBS, 0.1% Tween 20, 0.1% BSA (Buffer A).” left out
as §5

[5] = test system: Xenopus laevis oocytes; test: Progesterone-induced X. laevis oocyte maturation (germinal vesicle breakdown); format: cell-based; conditions: oocytes injected with 40 nL of 100 μM test peptide, 2 μg/mL progesterone; relative to water
Method: Briefly, Stage VI oocytes were prepared and injected as previously described (see, Kay, B. K., in Methods in Cell Biol. (1991) 36:663-669). Oocytes were injected with 40 nL of 100 μM test peptide or water. After injection, the oocytes were placed in 2 μg/mL progesterone (Sigma, St. Louis, MO) and scored hourly for germinal vesicle breakdown (GVBD). LAPPKPPLPEGEV is SEQ ID NO:70.
Moreover, Xenopus laevis oocytes injected with mRNA encoding constitutively active Src undergo progesterone-induced maturation at an accelerated rate relative to oocytes injected with water or c-Src mRNA. Unger, T. F. and Steele, R. E. in Mol. Cell. Biol. (1992) 12:5485-5498. To explore the ability of the library-derived Src SH3-binding peptides to exert a biochemical effect in vivo, the influence of the peptides on the maturation of Xenopus laevis oocytes was examined. […] The magnitude of this effect is roughly equivalent to that seen with injection of mRNA encoding constituitively active Src. See, e.g., FIG. 3B in Unger, T. F. and Steele, R. E., supra. […]
Segments of adult ovary were removed surgically and incubated in 0.1% collagenase type D (Boehringer Mannheim, Indianapolis, Ind.) in Ca^2+-free OR2 (82.5 mM NaCl, 2.5 mM KCl, 1.0 mM MgCl2, 1.0 mM Na2HPO4, 5.0 mM HEPES, and 3.8 mM NaOH, pH 7.6). […] Oocytes were scored at hourly time points for germinal vesicle breakdown (GVBD).

[6] = target: Src and PI-3′ Kinase SH3 domains; conditions: Yu et al., biased synthetic peptide library; read-out: binding affinity; cited from earlier work
[7] = target: cellular Src of Xenopus laevis oocytes (Xenopus laevis); test: cell-based or functional assay

Row | Molecule | binding to Src SH3 domain (Src SH3-GST) [1] | relative specificity of binding for SH3 domains of different proteins [1] | binding to Yes SH3 domain (Yes SH3-GST) [3] | also measured
1 | ANPSPATRPLPTR [synthetic peptide of phage clone T12.SRC3.2] | comparable to the core consensus sequence | Src family specificity |  | binding to Src SH3 domain (Src SH3-GST) ([1]; listed as APSPATRPLPTR): avid binding affinity
2 | GILAPPVPPRNTR [synthetic peptide of phage clone T12.SRC3.1] | much more avidly; also recorded: binds generically; also recorded: avid binding affinity | binds generically to a broad range of SH3 domains; also recorded: more generic SH3 domain-binding characteristics | much more avidly | binding to PLCγ SH3 domain (PLCγ1 SH2SH3-GST) [2]: binds generically; binding to Grb2 SH3 domain (Grb2-GST) [4]: binds generically
3 | GPHRRLPPTPATR [synthetic peptide of phage clone T12.SRC3.3] | much more avidly; also recorded: avid binding affinity | specific to src family SH3 domains | much more avidly | binding to PLCγ SH3 domain (PLCγ1 SH2SH3-GST) [2]: little affinity; binding to Grb2 SH3 domain (Grb2-GST) [4]: little affinity
4 | GTVEPVPPPVPPRRRPESA [reference compound] | much less well |  |  | 
5 | KISPPTPKPRPPRPLPV [reference compound] | much less well |  |  | 
6 | LAPPKPPLPEGEV [proline-rich region of the cytoskeletal protein vinculin, control peptide, reference compound] | much less well |  |  | rate of progesterone-induced oocyte maturation (germinal vesicle breakdown) [5]: not
7 | RKLPPRPRR [“composite” peptide of Yu et al] |  |  |  | Kd [6]: 7.6 µM
8 | RPLPPLP | less effective; also recorded: only weakly |  |  | 
9 | RSTPRPLPMLPTTR [synthetic peptide of phage clone R8C.YES3.5] | much more avidly; also recorded: strong specific binding affinity | highly specific | much more avidly | 
10 | RSTPRPLPPLPTTR [representative consensus motif with flanking residues of R8C.YES3.5] | much more avidly; also recorded: strong specific binding affinity | highly specific | much more avidly | 
11 | VLKRPLPIPPVTR [synthetic peptide of phage clone T12.SRC3.6] | much more avidly; also recorded: strong binding affinities; also recorded: avid binding affinity | Src preferential | much more avidly | binding to PLCγ SH3 domain (PLCγ1 SH2SH3-GST) [2]: little binding affinities; binding to Grb2 SH3 domain (Grb2-GST) [4]: some binding affinities; rate of progesterone-induced oocyte maturation (germinal vesicle breakdown) [5]: faster rate; also recorded: increased rate
12 | B1 |  |  |  | rate of progesterone-induced maturation of Xenopus laevis oocytes (germinal vesicle breakdown) [7]: 1 h

Reference: patent US6432920B1, “Nck SH3 binding peptides” (Cytogen Corporation, priority 1994, dated 2002)
